{
  "source": "patent US20250197889A1",
  "molecular_target": "humanized Nme2Cas9 expressed in HEK293T cells from a plasmid (Neisseria meningitidis strain De11444 (also printed De10444))",
  "assay": "cell-based or functional assay",
  "data": [
    {"substance": "AcrIIC4Hpa", "values": [
      {"measurement": "fold decrease in genome editing in HEK293T cells at various ratios of Acr to Cas9 plasmid", "value": 4, "unit": "fold"}
    ]}
  ]
}
